Measurements: patent EP3782644A1

Molecular target: ErbB2-Domain4 protein (human) (UniProt P04626)
Test: indirect ELISA, ErbB2-Domain4 protein coated at 100 ng/well, antibody in serial dilution, absorbance at 450 nm

B1: anti-ErbB2 monoclonal antibody 19G9 (antibody, V domains shown)
VH: LEQSGPGILQPSQTLSLICSFSGFSLSTSGMGVSWIRQPSGKGLEWLAHIYWDDDKRYNPSLKSRLTISKDTSSKQVFLKITSVDTADTATYYCALFAYYNYDGTVDYWGLGTSVTVSS
VL: DIVMTQTPSSLAVSVGEKVTMSCKSSQSLLHSRTRKNYLAWYQQKLGQSPKLLIYWASTRESGVPDRFTGSGSGTDFTLTISSVEAEDLAVYYCKQSYNLYTFGGGTKLEIK
  EC50: 100 nM
